Test results as given in patent publication US6323185.

How the values were obtained:
[1] = target: T1, SIV integrase (Simian immunodeficiency virus) (UniProt P05897); test: inhibition; conditions: PS at first and last internucleoside linkages, 3'-OH; 3'-processing
T1 sequence: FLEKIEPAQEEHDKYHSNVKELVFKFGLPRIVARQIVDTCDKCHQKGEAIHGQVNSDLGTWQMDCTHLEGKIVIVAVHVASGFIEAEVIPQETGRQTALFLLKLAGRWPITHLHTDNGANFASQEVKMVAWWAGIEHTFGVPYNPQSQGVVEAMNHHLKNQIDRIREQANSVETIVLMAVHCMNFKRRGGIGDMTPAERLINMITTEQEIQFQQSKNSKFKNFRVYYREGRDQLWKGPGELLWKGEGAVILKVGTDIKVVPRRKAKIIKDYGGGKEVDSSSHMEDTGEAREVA

[2] = target: HIV-1 integrase wild-type (IN1-288) (HIV-1) (UniProt P12497); test: inhibition; conditions: 3'-processing

GTGGTGGGTGGGTGGGT [T30177 (AR177, Zintevir)]
IC50 [1]: 420 nM

TCTTCCTCTCTCTACCCACGCTCIC [T30531 antisense GEM91 variant PT]
IC50 ([2]; all PS, strand transfer 0.036 uM): 30 nM

TCTTCCTCTCTCTACCCACGCTCIC [T30658 antisense GEM91 variant PD]
IC50 ([2]; all phosphodiester, strand transfer >0.5 uM): > 500 nM

TCTTCCTCTCTCTACCCACGCTCIC [T30662 antisense GEM91 variant pPT]
IC50 ([2]; PS at first and last linkages, strand transfer >0.5 uM): > 500 nM
